Measurements taken from US20250376529A1 (Amgen, published 2025).

T1: Rhesus GIPR (rhesus, UniProt F7E1R9 22-466)
T1 sequence: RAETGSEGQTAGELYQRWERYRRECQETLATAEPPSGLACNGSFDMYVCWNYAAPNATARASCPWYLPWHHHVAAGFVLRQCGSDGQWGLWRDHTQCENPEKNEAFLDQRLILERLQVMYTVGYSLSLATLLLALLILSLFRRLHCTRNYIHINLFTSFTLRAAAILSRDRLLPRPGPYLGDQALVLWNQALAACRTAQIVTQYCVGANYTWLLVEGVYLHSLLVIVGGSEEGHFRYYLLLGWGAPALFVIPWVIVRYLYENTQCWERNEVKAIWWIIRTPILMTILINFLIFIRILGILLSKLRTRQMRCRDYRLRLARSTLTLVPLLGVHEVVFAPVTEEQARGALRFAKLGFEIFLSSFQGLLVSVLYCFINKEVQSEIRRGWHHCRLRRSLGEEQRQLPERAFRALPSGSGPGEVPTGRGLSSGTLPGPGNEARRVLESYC


target: T1, Rhesus GIPR; experiment: cell-based or functional assay

Rhesus GIPR CAMP Assay (Conc. mAb @ 60% Inhibition in nM) [nM]	Binder
0.61	6A5.004.007 (antibody, human IgG1, kappa, N297G, V domains shown) VH: QVQLVESGGGVVQPGRSLRLSCAASGFSFSSYGMHWVRQPPGKGLEWVAAIWYDANNKYYADAVKGRFTISRDSSKNTLYLQMNSLRAEDTAVYYCARDRTIFGVVLEYWGQGTLVTVSS VL: not shown
0.82	6A5.004.008 (antibody, human IgG1, kappa, N297G, V domains shown) VH: QVQLVESGGGVVQPGRSLRLSCAASGFSFSSYGMHWVRQPPGKGLEWVAAIWYDGNNKYYADAVKGRFTISRDSSKNTLYLQMNSLRAEDTAVYYCARDRTIFGVVLEYWGQGTLVTVSS VL: DIQMTQSPSSLSASVGDRVTITCQASQDITNYLNWYQQKPGKAPKLLIYDASNLEPGVPSRFSGSGSGTDFTLTISSLQPEDFATYYCQQYDDLFTFGPGTKVDIKR
0.9	5G12.006.001 (antibody, human IgG1, kappa, N297G) heavy: not shown light: DIQLTQSPSSLSASVGDRVTITCRASQTISRFLNWYQQKPGKAPELLIYVASSLQSGVPSRFSGSGSGTDFTLTISSLQPEDFATYYCQQSYSTLISFGQGTKLEIKRTVAAPSVFIFPPSDEQLKSGTASVVCLLNNFYPREAKVQWKVDNALQSGNSQESVTEQDSKDSTYSLSSTLTLSKADYEKHKVYACEVTHQGLSSPVTKSFNRGEC
1	5G12.006.002 (antibody, human IgG1, kappa, N297G, V domains shown) VH: not shown VL: DIQLTQSPSSLSASVGDRVTITCRASQTISRFLNWYQQKPGKAPELLIYVASSLQSGVPSRFSGSGSGTDFTLTISSLQPEDFATYYCQQSYSTLISFGQGTKLEIKR
0.8	5G12.006 (antibody, human IgG1, kappa, N297G, V domains shown) VH: QVQLVESGGGVVQPGRSLRLSCTASGFTFSSYGIHWVRQAPGKGLEWVAVIWYDGSNKFHADSVKGRFTISRDNSKNTLYLQMNSLRAEDSAMYFCARGKVAGMPEAFEIWGQGTKVTVSS VL: DIQLTQSPSSLSASVGDRVTITCRASQTISRFLNWYQQKPGKAPELLIYVASSLQSGVPSRFSGSGSGTDFTLTISSLQPEDFATYYCQQSYSTLISFGQGTKLEITR
5.3	5G12.006.005 (antibody, human IgG1, kappa, N297G, V domains shown) VH: QVQLVESGGGVVQPGRSLRLSCAASGFTFSSYGIHWVRQAPGKGLEWVAVIWYDASNKFHADSVKGRFTISRDNSKNTLYLQMNSLRAEDSAMYFCARGKVAGMPEAFEIWGQGTKVTVSS VL: DIQLTQSPSSLSASVGDRVTITCRASQTISRFLNWYQQKPGKAPELLIYVASSLQSGVPSRFSGSGSGTDFTLTISSLQPEDFATYYCQQSYSTLISFGQGTKLEIKR
10.9	5G12.005.001 (antibody, human IgG1, kappa, N297G, V domains shown) VH: not shown VL: DIQLTQSPSSLSASVGDRVTITCRASQTISRFLNWYQQKPGKAPKLLIYVASSLQSGVPSRFSGSGSGTDFTLTISSLQPEDFATYYCQQSYSTLLSFGQGTKLEIKR
0.9	5G12.006.006 (antibody, human IgG1, kappa, N297G, V domains shown) VH: not shown VL: DIQLTQSPSSLSASVGDRVTITCRASQTISRFLNWYQQKPGKAPELLIYVASSLQSGVPSRFSGSGSGTDFTLTISSLQPEDFATYYCQQSYSTLISFGQGTKLEIKR
1.75	18F2.010 (antibody, human IgG1, kappa, N297G, V domains shown) VH: QVQLVESGGGVVQPGRSLRLSCAASGFTFSNFGMHWVRQAPGKGLEWVAVIWYDASNENYADSVKGRFTISRDNSKNTLYLQMNSLRAADTAVYYCARDGTIFGVVLGDYWGQGTLVTVSS VL: DIQMTQSPSSLSASIGDRVTITCRASQDLRNYLGWYQQKPGKAPKLLIYGASSLQSGVPSRFSGSGSGTEFTLTISSLQPEDFATYYCLQHNNYPFTFGPGTKVDIKR
0.65	4H9.004.005 (antibody, human IgG1, kappa, N297G, V domains shown) VH: not shown VL: DIQMTQSPSSLSASVGDRVTITCRASQGIRNELGWYQQKPGKAPKRLIYGASSLQSGVPSRFSGSGSGTEFTLTISSLQPEDFVTYYCLQHNSYPFTFGQGTKVDVKR
